Source: US20250076311A1 (Chugai, published 2025)

T1: cynomolgus monkey FcγRIIa2 extracellular domain with C-terminal His-tag (cynomolgus monkey)
T1 construct: also called cyno FcgRIIa2; cynoFcγRIIa2
T1 chain: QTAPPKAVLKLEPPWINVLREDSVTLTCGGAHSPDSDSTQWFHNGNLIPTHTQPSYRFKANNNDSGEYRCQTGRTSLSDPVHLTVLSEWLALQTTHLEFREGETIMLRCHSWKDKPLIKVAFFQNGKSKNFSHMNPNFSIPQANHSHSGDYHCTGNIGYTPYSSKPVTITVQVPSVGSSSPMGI

T2: cynomolgus monkey FcγRIIIaS extracellular domain with C-terminal His-tag (cynomolgus monkey, UniProt Q8SPW2 21-206 at identity 1.00))
T2 construct: also called cyno FcgRIIIaS; cynoFcγRIIIaS
T2 chain: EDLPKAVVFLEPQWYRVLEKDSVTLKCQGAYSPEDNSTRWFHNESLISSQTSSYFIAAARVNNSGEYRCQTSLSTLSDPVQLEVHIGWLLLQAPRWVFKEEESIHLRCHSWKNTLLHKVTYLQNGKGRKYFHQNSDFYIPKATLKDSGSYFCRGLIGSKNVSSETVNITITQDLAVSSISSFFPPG

T3: cynomolgus monkey FcγRIIa1 extracellular domain with C-terminal His-tag (cynomolgus monkey)
T3 construct: also called cyno FcgRIIa1; cynoFcγRIIa1
T3 chain: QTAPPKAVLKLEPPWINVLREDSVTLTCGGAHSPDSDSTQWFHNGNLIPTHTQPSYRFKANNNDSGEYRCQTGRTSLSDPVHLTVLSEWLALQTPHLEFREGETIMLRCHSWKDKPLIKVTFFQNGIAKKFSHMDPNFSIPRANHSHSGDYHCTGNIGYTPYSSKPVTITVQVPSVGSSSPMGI

T4: cynomolgus monkey FcγRIIb extracellular domain with C-terminal His-tag (cynomolgus monkey)
T4 construct: also called cyno FcgRIIb; cynoFcγRIIb
T4 chain: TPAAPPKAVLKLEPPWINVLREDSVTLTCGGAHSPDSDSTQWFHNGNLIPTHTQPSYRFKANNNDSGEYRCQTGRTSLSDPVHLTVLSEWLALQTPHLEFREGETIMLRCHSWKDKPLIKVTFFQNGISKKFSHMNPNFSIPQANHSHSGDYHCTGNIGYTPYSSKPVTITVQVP

T5: cynomolgus monkey FcγRIIa2 extracellular domain with C-terminal His-tag (cynomolgus monkey)
T5 construct: also called cyno FcgRIIa2; cynoFcγRIIa2
T5 chain: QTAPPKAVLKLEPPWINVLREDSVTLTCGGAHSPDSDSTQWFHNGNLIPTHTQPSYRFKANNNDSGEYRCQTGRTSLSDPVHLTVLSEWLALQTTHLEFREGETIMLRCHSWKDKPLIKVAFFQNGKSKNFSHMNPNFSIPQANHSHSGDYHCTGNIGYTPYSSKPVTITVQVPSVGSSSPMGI

T6: human FcγRIIb extracellular domain with C-terminal His-tag (human, UniProt P31994 43-217)
T6 construct: also called human FcgRIIb
T6 sequence: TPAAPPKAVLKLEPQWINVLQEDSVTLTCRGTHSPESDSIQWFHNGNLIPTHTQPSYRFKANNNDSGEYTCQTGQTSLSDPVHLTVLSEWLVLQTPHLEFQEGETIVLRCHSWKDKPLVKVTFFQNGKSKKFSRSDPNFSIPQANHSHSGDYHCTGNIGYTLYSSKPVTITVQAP


Key:
[1] = target: T1, cynomolgus monkey FcγRIIa2 …; assay: SPR, KD(SG1)/KD(variant)
Experimental: (§1) The kinetic analysis of interactions between these antibodies and FcγR was carried out using BIACORE® T200 or BIACORE® 4000 (GE Healthcare). HBS-EP+ (GE Healthcare) was used as the running buffer, and the measurement temperature was set to 25° C. […] After the measurement, the antibody captured on the chip was washed off by allowing reaction with 10 mM glycine-HCl, pH1.5 and 25 mM NaOH so that the chip was regenerated and used repeatedly. The sensorgrams obtained as measurement results were analyzed by the 1:1 Langmuir binding model using the BIACORE® Evaluation Software to calculate the binding rate constant ka (L/mol/s) and dissociation rate constant kd (1/s), and the dissociation constant KD (mol/L) was calculated from these values. […] Regarding such interactions, KD values were calculated using the following 1:1 binding model described in BIACORE® T100 Software Handbook BR1006-48 Edition AE.

[2] = target: T7, human FcγRIIIaV extracellular domain with C-terminal His-tag (human, UniProt P08637 17-208); assay: SPR, KD(SG1)/KD(variant)
T7 construct: also called human FcgRIIIaV
T7 sequence (P08637 17-208 F176V): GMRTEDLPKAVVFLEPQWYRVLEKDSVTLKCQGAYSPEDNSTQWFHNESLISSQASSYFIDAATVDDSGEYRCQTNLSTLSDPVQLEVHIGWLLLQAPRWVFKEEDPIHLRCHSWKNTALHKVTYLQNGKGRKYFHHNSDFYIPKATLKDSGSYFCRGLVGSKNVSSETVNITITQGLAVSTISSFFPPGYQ
Experimental: as §1

[3] = target: T2, cynomolgus monkey FcγRIIIaS …; assay: SPR, KD(SG1)/KD(variant)
Experimental: as §1

[4] = target: T2, cynomolgus monkey FcγRIIIaS …; assay: SPR, antibody captured, FcγR analyte
[5] = target: T8, human FcγRIIIaV extracellular domain, C-terminal His-tag (human, UniProt P08637 17-208); assay: SPR (BIACORE), captured by anti-human kappa, FcgR analyte
T8 construct: also called FcgRIIIaV
T8 sequence (P08637 17-208 F176V): as above
Experimental: as §1
Furthermore, the substitutions used in Example 29 for improving antibody half-life and reducing binding to rheumatoid factor were introduced into human FcγRIIb-enhanced Fc variants and their affinity against human FcγRs were analyzed (Table 29).

[6] = target: T3, cynomolgus monkey FcγRIIa1 …; assay: SPR, KD(SG1)/KD(variant)
Experimental: as §1

[7] = target: T4, cynomolgus monkey FcγRIIb extracellular …; assay: SPR (Biacore), KD of SG1 divided by KD of variant
[8] = target: T5, cynomolgus monkey FcγRIIa2 …; assay: SPR (Biacore), KD of SG1 divided by KD of variant
[9] = target: T6, human FcγRIIb extracellular domain with …; assay: SPR (Biacore), KD of SG1 divided by KD of variant

Binder | KD fold (SG1 = 1) [3] [fold] | Kd [4] [µM] | KD fold (SG1 = 1) [8] [fold] | also measured
MS1032LO06-MY352 (antibody, human IgG1, kappa, MY201 with Q311R/D413R; also called M103205H795-MY352; copies: 2 + 2) heavy: QVTLKESGPVLVKPTETLTLTCTVSGIDLSHDDISWVRQAPGKGLEWVGIISYAGSTYYASWAKGRLTISKDTSKNQVVLTMTNMDPVDTATYYCARGVPAYSHGGDLWGQGTLVTVSSASTKGPSVFPLAPSSKSTSGGTAALGCLVKDYFPEPVTVSWNSGALTSGVHTFPAVLQSSGLYSLSSVVTVPSSSLGTQTYICNVNHKPSNTKVDKKVEPKSCDKTHTCPPCPAPELLNGPSVFLFPPKPKDTLMISRTPEVTCVVVDVSDEDPEVKFNWYVDGVEVHNAKTKPREEQYNSTYRVVSVLTVLHRDWLNGKEYKCKVSNKALPKPIEKTISKAKGQPREPQVYTLPPSREEMTKNQVSLTCLVKGFYPSDIAVEWESNGQPENNYKTTPPVLDSDGSFFLYSKLTVRKSRWQQGNVFSCSVMHEALHNHYTQKSLSLSP light: DIVMTQSPATLSLSPGERATLSCTSSQSVYHANWLSWFQQKPGQPPKLLIYWASTLAYGVPSRFSGSGSGTDFTLTISSLQPEDAATYYCAGGYGGGRYAFGQGTKVEIKRTVAAPSVFIFPPSDEQLKSGTASVVCLLNNFYPREAKVQWKVDNALQSGNSQESVTEQDSKDSTYSLSSTLTLSKADYEKHKVYACEVTHQGLSSPVTKSFNRGEC | 0.07 | 4 | – | KD fold (SG1 = 1) [1]: 3.3 fold; KD fold (SG1 = 1) [2]: 0.04 fold
MS103240H795-TT69/M103202L1045-SK1 (antibody, copies: 2 + 2) heavy: QVQLVESGGGLVQPGGSLRLSCAVSGIDLSHDDISWVRQAPGKGLEWVSIISYAGSTYYASWAKGRLTISKDTSKNQVVLTMTNMDPVDTATYYCARGVPAYSHGGDLWGQGTLVTVSSASTKGPSVFPLAPSSKSTSGGTAALGCLVKDYFPEPVTVSWNSGALTSGVHTFPAVLQSSGLYSLSSVVTVPSSSLGTQTYICNVNHKPSNTKVDKKVEPKSCDKTHTCPPCPAPELLGGDSVFLFPPKPKDVLMISRTPEVTCVVVDVSHEDPEVKFNWYVDGVEVHNAKTKPREEQYNSTYRVVSVLPVLHRDWLNGKEYKCKVSNKALPKPIEKTISKAKGQPREPQVYTLPPSREEMTKNQVSLTCLVKGFYPSDIAVEWESNGQPENNYKTTPPVLDSDGSFFLYSKLTVKKSRWQQGNVFSCSVLHEALHAHTTRKELSLSP light: DIVMTQSPATLSLSPGERATLSCTTSQSVYHENWLSWFQQKPGQPPKLLIYWASTLAYGVPSRFSGSGSGTDFTLTISSLQPEDAATYYCAGGYGGGRYAFGQGTKVEIKRTVAAPSVFIFPPSDEQLKSGTASVVCLLNNFYPREAKVQWKVDNALQSGNSQESVTEQDSKDSTYSLSSTLTLSKADYEKHKVYACEVTHQGLSSPVTKSFNRGEC | – | – | – | Kd [5]: 930 µM
MS1032LO06-PK55 (antibody, human IgG1, kappa, MY201 with Q311R/P343R; also called MS103205H795-PK55; M103205H795-MY55) heavy: QVTLKESGPVLVKPTETLTLTCTVSGIDLSHDDISWVRQAPGKGLEWVGIISYAGSTYYASWAKGRLTISKDTSKNQVVLTMTNMDPVDTATYYCARGVPAYSHGGDLWGQGTLVTVSSASTKGPSVFPLAPSSKSTSGGTAALGCLVKDYFPEPVTVSWNSGALTSGVHTFPAVLQSSGLYSLSSVVTVPSSSLGTQTYICNVNHKPSNTKVDKKVEPKSCDKTHTCPPCPAPELLNGPSVFLFPPKPKDTLMISRTPEVTCVVVDVSDEDPEVKFNWYVDGVEVHNAKTKPREEQYNSTYRVVSVLTVLHRDWLNGKEYKCKVSNKALPKPIEKTISKAKGQRREPQVYTLPPSREEMTKNQVSLTCLVKGFYPSDIAVEWESNGQPENNYKTTPPVLDSDGSFFLYSKLTVDKSRWQQGNVFSCSVMHEALHNHYTQKSLSLSP light: DIVMTQSPATLSLSPGERATLSCTSSQSVYHANWLSWFQQKPGQPPKLLIYWASTLAYGVPSRFSGSGSGTDFTLTISSLQPEDAATYYCAGGYGGGRYAFGQGTKVEIKRTVAAPSVFIFPPSDEQLKSGTASVVCLLNNFYPREAKVQWKVDNALQSGNSQESVTEQDSKDSTYSLSSTLTLSKADYEKHKVYACEVTHQGLSSPVTKSFNRGEC | 0.08 | 3.3 | – | KD fold (SG1 = 1) [6]: 3.5 fold
M103205H795-MY527 / M103202L889-SK1 (antibody, human IgG1, kappa, name in EU numbering) heavy: QVTLKESGPVLVKPTETLTLTCTVSGIDLSHDDISWVRQAPGKGLEWVGIISYAGSTYYASWAKGRLTISKDTSKNQVVLTMTNMDPVDTATYYCARGVPAYSHGGDLWGQGTLVTVSSASTKGPSVFPLAPSSKSTSGGTAALGCLVKDYFPEPVTVSWNSGALTSGVHTFPAVLQSSGLYSLSSVVTVPSSSLGTQTYICNVNHKPSNTKVDKKVEPKSCDKTHTCPPCPTPELLTGPSVFLFPPKPKDTLMISRTPEVTCVVVDVSDEDPEVKFNWYVDGVEVHNAKTKPREELYNSTYRVVSVLTVLHQDWLNGKEYKCKVSNKALPKPIEKTISKAKGQPREPQVYTLPPSREEMTKNQVSLTCLVKGFYPSDIAVEWESNGQPENNYKTTPPVLDSDGSFFLYSKLTVDKSRWQQGNVFSCSVMHEALHNHYTQKSLSLSP light: DIVMTQSPATLSLSPGERATLSCTSSQSVYHANWLSWFQQKPGQPPKLLIYWASTLAYGVPSRFSGSGSGTDFTLTISSLQPEDAATYYCAGGYGGGRYAFGQGTKVEIKRTVAAPSVFIFPPSDEQLKSGTASVVCLLNNFYPREAKVQWKVDNALQSGNSQESVTEQDSKDSTYSLSSTLTLSKADYEKHKVYACEVTHQGLSSPVTKSFNRGEC | – | – | 3.9 | KD fold (SG1 = 1) [7]: 5.3 fold; KD fold (SG1 = 1) [9]: 3.3 fold
M103205H795-MY531 / M103202L889-SK1 (antibody, human IgG1, kappa, name in EU numbering) heavy: QVTLKESGPVLVKPTETLTLTCTVSGIDLSHDDISWVRQAPGKGLEWVGIISYAGSTYYASWAKGRLTISKDTSKNQVVLTMTNMDPVDTATYYCARGVPAYSHGGDLWGQGTLVTVSSASTKGPSVFPLAPSSKSTSGGTAALGCLVKDYFPEPVTVSWNSGALTSGVHTFPAVLQSSGLYSLSSVVTVPSSSLGTQTYICNVNHKPSNTKVDKKVEPKSCDKTHTCPPCPAPEWLTGPSVFLFPPKPKDTLMISRTPEVTCVVVDVSDEDPEVKFNWYVDGVEVHNAKTKPREEQYNSTYRVVSVLTVLHQDWLNGKEYKCKVSNTALPKPIEKTISKAKGQPREPQVYTLPPSREEMTKNQVSLTCLVKGFYPSDIAVEWESNGQPENNYKTTPPVLDSDGSFFLYSKLTVDKSRWQQGNVFSCSVMHEALHNHYTQKSLSLSP light: DIVMTQSPATLSLSPGERATLSCTSSQSVYHANWLSWFQQKPGQPPKLLIYWASTLAYGVPSRFSGSGSGTDFTLTISSLQPEDAATYYCAGGYGGGRYAFGQGTKVEIKRTVAAPSVFIFPPSDEQLKSGTASVVCLLNNFYPREAKVQWKVDNALQSGNSQESVTEQDSKDSTYSLSSTLTLSKADYEKHKVYACEVTHQGLSSPVTKSFNRGEC | – | – | 5.5 | –
